These results are taken from patent US10472401B2, “Peptides and combination of peptides for use in immunotherapy against ovarian cancer and other cancers” (immatics biotechnologies GmbH, priority 2015, dated 2019).

The target of this assay is HLA-A*02:01 (Homo sapiens, UniProt P04439, D140Y/D185E/D98H/E176V/E277Q/G131W/G231S/I119V/I121R/I166T/I218V/L300P/L318F/N151K/N90K/P208A/P217A/Q86G/Q94H/R138H/R169H/T345S). Description: MHC binding assay (UV-ligand exchange, ELISA of stabilized MHC complexes). The note with it: MHC class I binding score; binding to HLA-A*02:01 ranged by peptide exchange yield (UV-ligand exchange, ELISA). From the text:
Candidate peptides for T cell based therapies according to the present invention were further tested for their MHC binding capacity (affinity). The individual peptide-MHC complexes were produced by UV-ligand exchange, where a UV-sensitive peptide is cleaved upon UV-irradiation, and exchanged with the peptide of interest as analyzed. Only peptide candidates that can effectively bind and stabilize the peptide-receptive MHC molecules prevent dissociation of the MHC complexes. To determine the yield of the exchange reaction, an ELISA was performed based on the detection of the light chain (β2m) of stabilized MHC complexes. The assay was performed as generally described in Rodenko et al. (Rodenko et al., 2006).
96 well MAXISorp plates (NUNC) were coated over night with 2 ug/ml streptavidin in PBS at room temperature, washed 4× and blocked for 1h at 37° C. in 2% BSA containing blocking buffer. […] Peptide-MHC monomers of the UV-exchange reaction were diluted 100 fold in blocking buffer. Samples were incubated for 1h at 37° C., washed four times, incubated with 2 ug/ml HRP conjugated anti-82m for 1h at 37° C., washed again and detected with TMB solution that is stopped with […]. Absorption was measured at 450 nm. Candidate peptides that show a high exchange yield (preferably higher than 50%, most preferred higher than 75%) are generally preferred for a generation and production of antibodies or fragments thereof, and/or T cell receptors or fragments thereof, as they show sufficient avidity to the MHC molecules and prevent dissociation of the MHC complexes.
As for “1 (SLMEPPAVLLL; listed as Homo sapiens) [compound 1]”, the Peptide exchange result is reported as “″+++″ (≥50% = +++)”.
Under “4 (GIMEHITKI; listed as Homo sapiens) [compound 4]” stands “″++++″ (≥75% = ++++)”.
The result for “5 (HLTEVYPEL; listed as Homo sapiens) [compound 5]” reads “″+++″ (≥50% = +++)”; that for “6 (VLVSDGVHSV; listed as Homo sapiens) [compound 6]”, “″+++″ (≥50% = +++)”.
As to “7 (SLVGLLLYL; listed as Homo sapiens) [compound 7]”, the Peptide exchange result is recorded as “″++++″ (≥75% = ++++)”.
“9 (GAAKDLPGV; listed as Homo sapiens) [compound 9]”: the Peptide exchange entry is reported as “″++″ (≥20% = ++)”.
As for “10 (FLATFPLAAV; listed as Homo sapiens) [compound 10]”, the Peptide exchange entry is “″++++″ (≥75% = ++++)”.
Under “12 (SLWPDPMEV; listed as Homo sapiens) [compound 12]” stands “″+++″ (≥50% = +++)”.
Take “13 (YLMDESLNL; listed as Homo sapiens) [compound 13]”: the Peptide exchange entry is on record as “″+++″ (≥50% = +++)”.
The result for “14 (AAYGGLNEKSFV; listed as Homo sapiens) [compound 14]” reads “″+++″ (≥50% = +++)”; that for “15 (VLLTFKIFL; listed as Homo sapiens) [compound 15]”, “″++″ (≥20% = ++)”; that for “16 (VLFQGQASL; listed as Homo sapiens) [compound 16]”, “″+++″ (≥50% = +++)”.
Under “17 (GLLPGDRLVSV; listed as Homo sapiens) [compound 17]” stands “″+++″ (≥50% = +++)”; under “18 (YLVAKLVEV; listed as Homo sapiens) [compound 18]”, “″++″ (≥20% = ++)”.
Consider “19 (FMVDNEAIYDI; listed as Homo sapiens) [compound 19]”, for which the Peptide exchange entry is on record as “″++++″ (≥75% = ++++)”.
Under “20 (RMIEYFIDV; listed as Homo sapiens) [compound 20]” stands “″+++″ (≥50% = +++)”; under “21 (VLDELDMEL; listed as Homo sapiens) [compound 21]”, “″++″ (≥20% = ++)”.
Under “22 (IMEENPGIFAV; listed as Homo sapiens) [compound 22]” stands “″+++″ (≥50% = +++)”; under “23 (VLLDDIFAQL; listed as Homo sapiens) [compound 23]”, “″+++″ (≥50% = +++)”; under “24 (SLSDGLEEV; listed as Homo sapiens) [compound 24]”, “″++″ (≥20% = ++)”.
Under “25 (FLPDEPYIKV; listed as Homo sapiens) [compound 25]” stands “″+++″ (≥50% = +++)”; under “26 (ALLELAEEL; listed as Homo sapiens) [compound 26]”, “″+++″ (≥50% = +++)”; under “27 (ILADIVISA; listed as Homo sapiens) [compound 27]”, “″+++″ (≥50% = +++)”.
Turning to “28 (QLLDETSAITL; listed as Homo sapiens) [compound 28]”, the Peptide exchange entry was “″+++″ (≥50% = +++)”.
The result for “29 (KMLGIPISNILMV; listed as Homo sapiens) [compound 29]” reads “″+++″ (≥50% = +++)”.
Under “30 (LILDWVPYI; listed as Homo sapiens) [compound 30]” stands “″+++″ (≥50% = +++)”; under “31 (YLAPELFVNV; listed as Homo sapiens) [compound 31]”, “″++″ (≥20% = ++)”.
With “32 (KLDDLTQDLTV; listed as Homo sapiens) [compound 32]”, the Peptide exchange result is recorded as “″++″ (≥20% = ++)”.
The result for “33 (VLLSLLEKV; listed as Homo sapiens) [compound 33]” reads “″++″ (≥20% = ++)”; that for “34 (ILVEADSLWVV; listed as Homo sapiens) [compound 34]”, “″+++″ (≥50% = +++)”.
